One test deals with HLA-B*08:01. In words: IEDB peptide-MHC binding, purified MHC/competitive/radioactivity; filed as Kd, often an IC50 or EC50 that approximates it; ≥ and ≤ were set here for values at or beyond the usual limits of such assays.
In test [1] the target is HLA-A*02:01. The test is described as above.
The target in test [2] is HLA-B*15:01. The description is as above.
A further test concerns the target HLA-A*32:01. Described as above.
For another test, the target named is HLA-A*01:01. The test is described as above. The conditions noted are these: source organism: Mammarenavirus whitewaterense.
The target in test [3] is HLA-A*26:01. Described as above. The conditions noted are these: source organism: Mammarenavirus whitewaterense.
The target of the next test is HLA-A*29:02. The description is as above. The conditions noted are these: source organism: Mammarenavirus whitewaterense.
In a further test the target is HLA-A*30:01. Described as above. The conditions noted are these: source organism: Mammarenavirus whitewaterense.
Another test concerns the target HLA-A*30:02. Described as above. The conditions noted are these: source organism: Mammarenavirus whitewaterense.
A further test concerns the target HLA-B*40:01. The test is described as above.
The target of another test is HLA-B*44:02. The test is described as above.
The next test deals with HLA-B*44:03. The description is as above.
The target in test [4] is HLA-B*15:01. The experiment in a line: IEDB peptide-MHC binding, purified MHC/competitive/fluorescence; filed as Kd, often an IC50 or EC50 that approximates it; ≥ and ≤ were set here for values at or beyond the usual limits of such assays.
Test [5] concerns the target HLA-A*02:01. The test is described as above. The conditions noted are these: source organism: Escherichia coli 536.
The next test has as its target HLA-B*51:01. The test is described as above.
Another test addresses HLA-A*02:12. The experiment in a line: IEDB peptide-MHC binding, purified MHC/direct/fluorescence; filed as Kd, often an IC50 or EC50 that approximates it; ≥ and ≤ were set here for values at or beyond the usual limits of such assays. The conditions noted are these: source organism: Mycobacterium tuberculosis str. Haarlem.
In test [6] the target is HLA-A*69:01. The description is as above.
In test [7] the target is HLA-B*46:01. Described as above.
In test [8] the target is HLA-A*26:01. In words: IEDB peptide-MHC binding, purified MHC/competitive/fluorescence; filed as Kd, often an IC50 or EC50 that approximates it; ≥ and ≤ were set here for values at or beyond the usual limits of such assays. The conditions noted are these: source organism: Homo sapiens.
For test [9], the target named is HLA-A*69:01. Described as above. The conditions noted are these: source organism: Homo sapiens.
The next test concerns the target HLA-B*27:03. The description is as above. The conditions noted are these: source organism: Homo sapiens.
In test [10] the target is HLA-B*46:01. Described as above. The conditions noted are these: source organism: Homo sapiens.
The target of the next test is HLA-B*57:01. The description is as above. The conditions noted are these: source organism: Homo sapiens.
In test [11] the target is HLA-B*15:01. In words: IEDB peptide-MHC binding, purified MHC/direct/fluorescence; filed as Kd, often an IC50 or EC50 that approximates it; ≥ and ≤ were set here for values at or beyond the usual limits of such assays. The conditions noted are these: source organism: Yellow fever virus.
The next test concerns the target HLA-B*07:02. In words: IEDB peptide-MHC binding, purified MHC/competitive/radioactivity; filed as Kd, often an IC50 or EC50 that approximates it; ≥ and ≤ were set here for values at or beyond the usual limits of such assays. The conditions noted are these: source organism: Dengue virus 2 Jamaica/1409/1983.
Where [12] appears, read: source organism: Vaccinia virus WR.
[13] abbreviates: source organism: Lassa virus Josiah.
Where [14] appears, read: source organism: Vaccinia virus Copenhagen.
Where [15] appears, read: source organism: Dengue virus 3 Martinique/1243/1999.
Setting [16] is: source organism: Dengue virus 2 Jamaica/1409/1983.
Where [17] appears, read: source organism: Escherichia coli 536.
Where [18] appears, read: source organism: Dengue virus 4 Philippines/H241/1956.
[19] abbreviates: source organism: Yellow fever virus.

The source of these data is the Immune Epitope Database (IEDB).

As to AIKLGFKSL, the Kd in the test with HLA-B*08:01 (setting [12]) is 41.3 nM. For ALPRNMVIT, the Kd with HLA-A*02:01 [1] (setting [13]) worked out at 12500 nM. Regarding AMIELCGAF, the dissociation constant Kd with HLA-B*15:01 [2] (setting [12]) was 0.336 nM. Take ATIWRSLSI: the Kd with HLA-A*32:01 (setting [14]) was determined as 1.89 nM. For ATTNAHCALL, the Kd in the test with HLA-A*01:01 is 7670 nM; with HLA-A*26:01 [3], at least 69700 nM; in the test with HLA-A*29:02, at least 71400 nM; with HLA-A*30:01, 2350 nM; with HLA-A*30:02 it was 6040 nM; with HLA-A*32:01 (source organism: Mammarenavirus whitewaterense), at least 69900 nM. Consider EEMFKKRNL, for which the Kd in the test with HLA-B*40:01 (setting [15]) is 6310 nM; with HLA-B*44:02 (setting [15]), 51.2 nM; in the test with HLA-B*44:03 (setting [15]), 483 nM.

Consider EKEENLVNSL, for which, in the test with HLA-B*08:01 (setting [16]), the Kd came to 1840 nM. Turning to EVKTCIWPKS, the Kd with HLA-A*32:01 (source organism: Dengue virus 1 Brazil/97-11/1997) was at least 49500 nM. With FIMIVGGLV, the Kd with HLA-A*02:01 [1] (source organism: HIV-1 M:B_MN) turned out to be 382 nM. With FLDEFMEAV, the Kd in the test with HLA-A*02:01 [1] (source organism: Homo sapiens) is 8.3 nM. As to FLLSLVEFF, the Kd with HLA-B*15:01 [2] (setting [12]) came out at 0.816 nM. Consider FRRLRKGSI, for which the Kd with HLA-B*08:01 (setting [12]) was determined as 3.01 nM. In turn, FSQEEAKLF had a Kd with HLA-B*15:01 [4] (source organism: Yersinia pestis Antiqua) of 2480 nM. Consider FSSQALVLI, for which the Kd in the test with HLA-A*02:01 [5] was 692 nM; in the test with HLA-B*15:01 [4] (setting [17]), at least 20000 nM; in the test with HLA-B*51:01 (setting [17]), at least 20000 nM.

For the sequence GEMCEDTVTY, the Kd with HLA-B*40:01 (setting [18]) amounted to 918 nM; in the test with HLA-B*44:02 (setting [18]), 35.4 nM; with HLA-B*44:03 (setting [18]), 104 nM. As to GLLDVTDNV, the Kd with HLA-A*02:12 amounted to 3 nM; in the test with HLA-A*69:01 [6] (source organism: Mycobacterium tuberculosis), 486 nM. For the sequence GVFPVSIPI, in the test with HLA-A*32:01 (setting [16]), the Kd is 44.5 nM. GVIMPNGSY had a Kd with HLA-B*46:01 [7] (source organism: West Nile virus) of 1990 nM.

Consider IENLEYTVVV, for which the Kd with HLA-B*40:01 (setting [18]) is 157 nM. On to ITYPKALVF, for which the Kd in the test with HLA-A*32:01 (setting [12]) was found to be 3.02 nM.

For KIWGRKSWPL, the Kd with HLA-B*08:01 (source organism: Dengue virus 1 Singapore/S275/1990) was determined as 382 nM. For KLFNIAQRI, the Kd with HLA-A*32:01 (setting [12]) came out at 1.58 nM. As to KMFTYLMES, the Kd with HLA-A*26:01 [8], with HLA-A*69:01 [9], with HLA-B*27:03, with HLA-B*46:01 [10], with HLA-B*51:01 (source organism: Homo sapiens) and with HLA-B*57:01 was at least 20000 nM in each case.

Turning to KMLDPRQGL, the Kd is at least 10000 nM in the test with HLA-A*69:01 [6] (setting [19]), 808 nM in the test with HLA-B*15:01 [11] and at least 20000 nM in the test with HLA-B*46:01 [7] (setting [19]). Regarding KTWGKAKIV, the Kd with HLA-A*32:01 (setting [15]) turned out to be 1260 nM. Regarding LAAVSVSPL, the Kd with HLA-B*07:02 turned out to be 125 nM. On to LAKKSYVVF, for which, in the test with HLA-B*15:01 [2] (setting [14]), the Kd worked out at 97.3 nM. Regarding LEADYVESM, the dissociation constant Kd in the test with HLA-B*15:01 [2] (setting [12]) was 434 nM. With LEKASLIEV, the results for the Kd with HLA-B*40:01 (setting [15]) and with HLA-B*44:02 (setting [15]) were 1030 nM and at least 77900 nM, respectively. As for LETLLLLTLL, in the test with HLA-B*40:01 (setting [16]), the Kd was determined as 101 nM. Take LGKKKTPRM: the Kd with HLA-B*08:01 (setting [16]) came out at 378 nM. For the sequence LIALSVLAVL, the Kd in the test with HLA-A*02:01 [1] (setting [13]) is 2780 nM.
